The values below come from publication PMC6001692, “Chlamydial virulence factor TarP mimics talin to disrupt the talin‐vinculin complex” (Febs Letters, 2018).

Assay [1] addresses T1, FAK‐FAT domain (residues 941–1090) (Mus musculus, UniProt P34152).
T1 construct: the FAK‐FAT domain (residues 941–1090); 6xHis (cleaved yes); made in house; host or cells: E. coli BL21 (DE3)
T1 sequence (P34152 904-1052 limits assumed): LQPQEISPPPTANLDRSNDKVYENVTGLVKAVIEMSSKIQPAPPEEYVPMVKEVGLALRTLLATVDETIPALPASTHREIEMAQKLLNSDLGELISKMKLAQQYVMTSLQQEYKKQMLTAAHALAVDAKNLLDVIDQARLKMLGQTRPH
The assay can be described thus: Fluorescence polarisation assay, fluorescein-labelled LD-motif peptides titrated with FAK-FAT domain. It is filed as binding. From the text:
Chicken vinculin Vd1 (residues 1–259), murine talin R10 (residues 1815–1973), and the FAK‐FAT domain (residues 941–1090) were cloned into a pET151 vector (Invitrogen) and expressed in E .coli BL21 (DE3) cells cultured in LB. Standard nickel‐affinity chromatography was used to purify the His‐tagged recombinant proteins as described previously 15. The proteins were further purified using anion‐exchange chromatography following cleavage of the 6xHis‐tag with TEV protease. Protein concentrations were determined using the respective extinction coefficients at 280 nm.
Peptides with either a C‐ or N‐terminal cysteine were synthesised by GLBiochem (China).
Peptides were coupled to a thiol‐reactive fluorescein dye via the terminal cysteine. Stock solutions were made in phosphate‐buffered saline (PBS; 137 mM NaCl, […], […], […], pH 7.4), 1 mM TCEP and 0.05% Triton X‐100. Excess dye was removed using a PD‐10 desalting column (GE Healthcare, Chicago, IL, USA). […] Fluorescent polarisation (FP) measurements were recorded on a BMGLabTech CLARIOstar plate reader at room temperature and analysed using GraphPad Prism. K d values were calculated with nonlinear curve fitting using a one‐site total binding model. […]

Assay [2] has as its target T2, vinculin Vd1 (residues 1–259) (Gallus gallus, UniProt P12003).
T2 construct: Chicken vinculin Vd1 (residues 1–259); 6xHis (cleaved yes); made in house; host or cells: E. coli BL21 (DE3)
Briefly: Fluorescence polarisation assay, fluorescein-labelled peptides titrated with vinculin head Vd1. It is filed as binding, Chicken. The following applies: FP; negative control; Kd ND in Fig. 1D.
Description: Peptides were coupled to a thiol‐reactive fluorescein dye via the terminal cysteine. Stock solutions were made in phosphate‐buffered saline (PBS; 137 mM NaCl, 27 mM KCl, 100 mM Na2HPO4, 18 mM KH2PO4, pH 7.4), 1 mM TCEP and 0.05% Triton X‐100. Excess dye was removed using a PD‐10 desalting column (GE Healthcare, Chicago, IL, USA). Titrations were performed in PBS using a constant 1 μM concentration of fluorescein‐coupled peptide with increasing concentration of protein; final volume 100 μL in a black 96‐well plate. Fluorescent polarisation (FP) measurements were recorded on a BMGLabTech CLARIOstar plate reader at room temperature and analysed using GraphPad Prism. K d values were calculated with nonlinear curve fitting using a one‐site total binding model.
In this assay, synthetic VBS peptides (Materials and methods) were fluorescently labelled with fluorescein and titrated against an increasing concentration of Vd1.

The target in assay [3] is FAK‐FAT domain (residues 941–1090). The assay can be described thus: fluorescence polarisation; 1 μM fluorescein-coupled peptide constant, increasing concentration of protein; PBS, room temperature, 96-well plate; one-site total binding fit; triplicate. For orientation: In fluorescence polarisation assays a small probe gives low polarisation when free and higher when bound to something large.

Assay [4] concerns the target T3, Chicken vinculin Vd1 (residues 1–259) (chicken, UniProt P12003 1-259).
T3 construct: also called vinculin head; vinculin head domain
T3 sequence (looked up): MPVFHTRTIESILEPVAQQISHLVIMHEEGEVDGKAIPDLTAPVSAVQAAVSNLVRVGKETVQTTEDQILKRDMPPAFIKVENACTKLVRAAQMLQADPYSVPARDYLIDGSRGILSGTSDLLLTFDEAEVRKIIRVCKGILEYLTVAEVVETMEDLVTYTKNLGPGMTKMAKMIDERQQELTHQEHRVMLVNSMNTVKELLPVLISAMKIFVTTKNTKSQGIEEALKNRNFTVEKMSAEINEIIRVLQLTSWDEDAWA
Described as above. The following applies: both partners purified.

The target of assay [5] is T3, Chicken vinculin Vd1 (residues 1–259). Briefly: SEC-MALS; analytical gel filtration, Superdex-75, 4 °C, 50 mM Tris pH 7.5, 150 mM NaCl, 2 mM DTT; 100 μM of each protein at 1:1 (talin:Vd1), incubated at 37 °C for 30 min. Particulars: both partners purified. In general terms: Size exclusion chromatography separates by hydrodynamic size, large species first.

Where no end group is shown, it is not given here.

In the case of “EGAEGLEHLLPQLRSHLDDAFDQQGN‐C [TarP LD, synthetic LD-motif peptide of C. caviae TarP, residues 655–680, with C-terminal cysteine]”, in assay [1] (fluorescein-labelled peptide, Kd ND in Fig. 4B), the “Binding to FAK-FAT by FP (in words)” value is “no increase in polarisation”. In assay [2], the “Interaction with Vd1 (in words)” value is “does not interact with Vd1”.
A word on the Kd: it is the free concentration of one partner at which half of the binding sites on the other are occupied at equilibrium, for simple one-to-one binding. Take `CC(C)C[C@H](NC(=O)[C@H](CCC(=O)O)NC(=O)[C@H](CC(C)C)NC(=O)[C@H](CC(C)C)NC(=O)[C@H](CC(C)C)NC(=O)[C@H](CCCNC(=N)N)NC(=O)[C@H](CC(=O)O)NC(=O)[C@H](CC(C)C)NC(=O)[C@H](CCC(=O)O)NC(=O)[C@H](CO)NC(=O)[C@H](CC(C)C)NC(=O)[C@H](CC(N)=O)NC(=O)[C@@H](N)CS)C(=O)N[C@@H](CC(N)=O)C(=O)O` [Paxillin LD2, reference compound]: the Kd in assay [1] (FP, 1 μM fluorescein-coupled peptide, increasing FAK-FAT, PBS, room temperature, ± SE, read-out: Dissociation constant Kd for binding to FAK-FAT) was determined as 9.01 µM.
CNLSELDRLLLELN (fluorescein (thiol-reactive dye) coupled via the N-terminal cysteine) [Pax_LD2 peptide (paxillin residues 141–153) with N-terminal cysteine, fluorescein-coupled] yielded a Kd in assay [3] of 9 µM.
The molecule LLEAARNTTTMLSKTLSKVC(fluorescein) (source: synthetic peptide (GLBiochem)) [TarP_VBS1 peptide (C. caviae residues 850–868) with C-terminal cysteine, fluorescein-coupled] showed an equilibrium dissociation constant (Kd) in assay [4] of 1.29 µM.

B1: murine talin R10 (residues 1815–1973) (domain or fragment, UniProt P26039 1815-1973, looked up)
chain: NEAASAAGVVGGMVDSITQAINQLDEGPMGDPEGSFVDYQTTMVRTAKAIAVTVQEMVTKSNTSPEELGPLANQLTSDYGRLASQAKPAAVAAENEEIGAHIKHRVQELGHGCSALVTKAGALQCSPSDVYTKKELIECARRVSEKVSHVLAALQAGNR
notes: also called talin rod domain R10
The term stoichiometry N denotes the number of molecules, sites or subunits per partner or assembly. Take B1: in assay [5], the “stoichiometry N” value came to 1.

B2: mTal1_VBS36 peptide (talin residues 1622–1656) with N-terminal cysteine, fluorescein-coupled (peptide)
peptide: C(fluorescein)VNPRDPPRWSVLAGHSRTVSDSIKKLITSMRDKAP
notes: also called talin VBS36; source: synthetic peptide (GLBiochem)
In assay [4], B2 registered a Kd of 1.03 µM.
